Data set [1] deals with the molecule itself. Nature of the data set: not stated; 6xHis-tagged Prx reduced with DTT, in purification buffer and in coupling buffer; method not given.
Another data set deals with T1, recombinant PfSAHH wt (P. falciparum, UniProt P50250 1-479).
T1 construct: S-adenosyl-L-homocysteine hydrolase, Plasmodium falciparum, wild type; not pre-reduced in the assay; also called S-adenosyl-L-homocysteine hydrolase; source: recombinant, purified (produced as previously described)
T1 sequence (P50250 whole entry): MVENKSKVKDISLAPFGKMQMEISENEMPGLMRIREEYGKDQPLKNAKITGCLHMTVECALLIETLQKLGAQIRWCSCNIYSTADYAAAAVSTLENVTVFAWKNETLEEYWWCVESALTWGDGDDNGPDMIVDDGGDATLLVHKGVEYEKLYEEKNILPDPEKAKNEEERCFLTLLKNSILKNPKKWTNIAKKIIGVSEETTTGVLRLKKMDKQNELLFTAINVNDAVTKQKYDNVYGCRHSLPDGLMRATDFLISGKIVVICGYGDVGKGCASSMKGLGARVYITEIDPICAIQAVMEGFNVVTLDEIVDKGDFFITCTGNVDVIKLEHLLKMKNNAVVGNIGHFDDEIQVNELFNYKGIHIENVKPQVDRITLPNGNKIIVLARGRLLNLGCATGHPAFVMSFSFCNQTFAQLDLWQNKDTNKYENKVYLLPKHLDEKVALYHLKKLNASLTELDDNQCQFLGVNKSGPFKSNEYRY
Kind of data set: pull-down; 2 mg reduced PfPrx1a wt on CNBr-activated Sepharose 4B; 8 mg purified recombinant PfLDH wt or PfSAHH wt (not pre-reduced); extensive washing; eluted with 10 mM DTT; silver-stained 12% SDS-PAGE. Particulars: both partners purified.

B1: PfPrx1a wild type (enzyme, P. falciparum, UniProt Q8IL80 1-195, looked up)
chain: MASYVGREAPYFKAEAVFADNTFGEVNLHDFIGKKYVLLYFYPLDFTFVCPSEIIALDKALDAFKERNVELIGCSVDSKYTHLAWKKTPLTKGGIGNIQHTLISDITKSISRSYNVLFGDSVSLRAFVLIDKQGVVQHLLVNNLAIGRSVEEVLRIIDAVQHHEQHGDVCPANWKKGKVAMKPSEEGVSEYLSKL
notes: PfPrx1a (thioredoxin peroxidase 1), Plasmodium falciparum; peroxidatic C50, resolving C170, further C74; also called PfPrx1a wt; thioredoxin peroxidase 1; source: E. coli M15 (pQE30), purified (Ni-NTA); not shown: His6, N-terminal, kept; copies: 10
As for B1, the “stoichiometry N” value in data set [1] was 10. In addition, the binding result with recombinant PfSAHH wt is given as “binds”.

B2: PfPrx1m wild type (enzyme, P. falciparum)
chain: SLVTKKAYNFTAQGLNKNNEIINVDLSSFIGQKYCCLLFYPLNYTFVCPTEIIEFNKHIKDFENKNVELLGISVDSVYSHLAWKNMPIEKGGIGNVEFTLVSDINKDISKNYNVLYDNSFALRGLFIIDKNGCVRHQTVNDLPIGRNVQEVLRTIDSIIHVDTSGEVCPINWKKGQKAFKPTTESLIDYMNNANKNV
notes: PfPrx1m (thioredoxin peroxidase 2), Plasmodium falciparum, mitochondrial; peroxidatic C67, resolving C187, further C54, C55, C152; also called PfPrx1m wt; thioredoxin peroxidase 2; source: E. coli M15 (pQE30), purified (Ni-NTA); not shown: His6, N-terminal, kept; copies: 10
Consider B2, for which, in data set [1], the “stoichiometry N” value was found to be 10.

As usually defined, the stoichiometry N is the number of molecules, sites or subunits per partner or assembly.

For the origin of these results see paper PMC6753162, “The interactome of 2-Cys peroxiredoxins in Plasmodium falciparum” (Scientific Reports, 2019).
